From the supplement of paper PMC9112550, “Optimization of the antimicrobial peptide Bac7 by deep mutational scanning” (BMC Biology, 2022)

Test system: Escherichia coli TOP10
Experiment: shrunken log2 fold change of peptide-encoding DNA abundance (4.5 h post-induction vs induction); higher = less antimicrobial activity (less host growth inhibition)
Conditions: time post-induction: 4.5 h; library: site-saturation at positions 5, 18, 19, 20
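Further: peptides expressed intracellularly from a pBAD plasmid library in pooled LB shake-flask culture, induced with 0.3% L-arabinose, DNA abundance read by NGS, three biological replicates, DESeq2 with apeglm shrinkage.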

| Sequence | shrunken log2 fold change |
| --- | --- |
| RRIRQRPPRLPRPRPRPCCTPRP | -0.137 |
| RRIRWRPPRLPRPRPRPGSWPRP | 0.517 |
| RRIRTRPPRLPRPRPRPPTCPRP | 0.174 |
| RRIRYRPPRLPRPRPRPMHGPRP | 0.00652 |
| RRIRYRPPRLPRPRPRPRATPRP | -0.0516 |
| RRIRGRPPRLPRPRPRPFDSPRP | 0.0127 |
| RRIRGRPPRLPRPRPRPMERPRP | 1.36 |
| RRIRRRPPRLPRPRPRPDRHPRP | -0.0411 |
| RRIRSRPPRLPRPRPRPPSRPRP | 0.263 |
| RRIRTRPPRLPRPRPRPQALPRP | 0.231 |
| RRIRMRPPRLPRPRPRPHTNPRP | 0.0722 |
| RRIRDRPPRLPRPRPRPTTSPRP | 0.335 |
| RRIRWRPPRLPRPRPRPNLDPRP | 0.278 |
| RRIRVRPPRLPRPRPRPQLMPRP | -0.224 |
| RRIRARPPRLPRPRPRPDFEPRP | 0.661 |
| RRIRDRPPRLPRPRPRPAPDPRP | 0.533 |
| RRIRNRPPRLPRPRPRPGATPRP | 0.124 |
| RRIRERPPRLPRPRPRPYLCPRP | -0.554 |
| RRIRLRPPRLPRPRPRPYVIPRP | -0.662 |
| RRIRDRPPRLPRPRPRPKYRPRP | -0.0164 |
| RRIRGRPPRLPRPRPRPSWIPRP | -0.0436 |
| RRIRNRPPRLPRPRPRPRPAPRP | 0.313 |
| RRIRNRPPRLPRPRPRPHYQPRP | -0.568 |
| RRIRDRPPRLPRPRPRPGLKPRP | -0.0696 |
| RRIRSRPPRLPRPRPRPFNCPRP | -0.441 |

| Sequence | shrunken log2 fold change |
| --- | --- |
| RRIRHRPPRLPRPRPRPARIPRP | 0.0499 |
| RRIRRRPPRLPRPRPRPVVDPRP | 0.372 |
| RRIRKRPPRLPRPRPRPDNFPRP | -0.0455 |
| RRIRFRPPRLPRPRPRPLYEPRP | -0.664 |
| RRIRFRPPRLPRPRPRPAHLPRP | -0.0824 |
| RRIRGRPPRLPRPRPRPLPEPRP | 0.884 |
| RRIRIRPPRLPRPRPRPFNHPRP | -0.0691 |
| RRIRPRPPRLPRPRPRPRPNPRP | 0.505 |
| RRIRARPPRLPRPRPRPRPMPRP | 0.771 |
| RRIRKRPPRLPRPRPRPIFVPRP | 0.471 |
| RRIRNRPPRLPRPRPRPIGDPRP | -0.0116 |
| RRIRTRPPRLPRPRPRPQCVPRP | -0.12 |
| RRIRIRPPRLPRPRPRPINDPRP | -0.657 |
| RRIRARPPRLPRPRPRPFGSPRP | -0.0315 |
| RRIRERPPRLPRPRPRPLCVPRP | -0.307 |
| RRIRGRPPRLPRPRPRPWWFPRP | -0.03 |
| RRIRSRPPRLPRPRPRPHQVPRP | -0.0813 |
| RRIRDRPPRLPRPRPRPCYWPRP | 0.00776 |
| RRIRVRPPRLPRPRPRPFDTPRP | -0.847 |
| RRIRDRPPRLPRPRPRPSRLPRP | 0.0232 |
| RRIRWRPPRLPRPRPRPIRAPRP | -0.0266 |
| RRIRCRPPRLPRPRPRPWCIPRP | -0.308 |
| RRIRWRPPRLPRPRPRPRKIPRP | 0.491 |
| RRIRWRPPRLPRPRPRPTDQPRP | 0.203 |
| RRIRNRPPRLPRPRPRPDYIPRP | -0.104 |

| Sequence | shrunken log2 fold change |
| --- | --- |
| RRIRGRPPRLPRPRPRPAGRPRP | 0.692 |
| RRIRIRPPRLPRPRPRPTPLPRP | 0.245 |
| RRIRQRPPRLPRPRPRPSTDPRP | -0.468 |
| RRIRGRPPRLPRPRPRPNKVPRP | 0.0962 |
| RRIRQRPPRLPRPRPRPPPHPRP | 0.737 |
| RRIRYRPPRLPRPRPRPTEKPRP | -0.0336 |
| RRIRARPPRLPRPRPRPNCNPRP | -0.116 |
| RRIRQRPPRLPRPRPRPMQYPRP | -0.309 |
| RRIRKRPPRLPRPRPRPCRPPRP | 0.0439 |
| RRIRFRPPRLPRPRPRPVYGPRP | -0.286 |
| RRIRNRPPRLPRPRPRPHYMPRP | -0.389 |
| RRIRKRPPRLPRPRPRPQIFPRP | -0.0259 |
| RRIRPRPPRLPRPRPRPDRTPRP | -0.25 |
| RRIRVRPPRLPRPRPRPSHPPRP | -0.852 |
| RRIRWRPPRLPRPRPRPYNSPRP | -0.178 |
| RRIRKRPPRLPRPRPRPEEFPRP | 0.227 |
| RRIRPRPPRLPRPRPRPEDFPRP | -0.0193 |
| RRIRDRPPRLPRPRPRPKQTPRP | 0.0941 |
| RRIRWRPPRLPRPRPRPCCQPRP | 0.0191 |
| RRIRERPPRLPRPRPRPIREPRP | 0.0256 |
| RRIRDRPPRLPRPRPRPSHDPRP | -0.339 |
| RRIRMRPPRLPRPRPRPFVRPRP | -0.01 |
| RRIRCRPPRLPRPRPRPLNQPRP | -0.317 |
| RRIRLRPPRLPRPRPRPNYPPRP | -0.156 |
| RRIRTRPPRLPRPRPRPGARPRP | 0.212 |
